The results in this text go back to patent publication US20240324599A1, “PESTICIDAL ENZYMES FOR USE ON NEMATODES, INSECTS, AND MOLLUSKS” (priority 2023, published 2024).

Read-outs that look alike come from different tables or passages of the source.

For test [1], the system named is SCN juveniles (SCN HG type 1.2.5.7, race 2). The test is classed as in vivo. The note with it: for Difference in Percent Death of Nematodes for 0 to 24 Hours: 40 μL of each treatment per well.
Source text: To identify an additional esterase enzyme with efficacy in reducing SCN viability, we performed an in-vitro plate assay with a Pseudomonas sp. esterase (SEQ ID NO: 248) free enzyme direct treatment. The Pseudomonas sp. esterase (SEQ ID NO: 248) was produced by fermentation in Bacillus subtilis. The enzyme was cloned into a Bacillus expression plasmid p1797 with isopropyl β-d-1-thiogalactopyranoside (IPTG) inducible expression. The plasmid was transformed into B. subtilis, and the gene sequence was confirmed. The strain was grown in rich media until an optical density (OD) 0.2-0.5 was reached. Enzyme expression was then induced by addition of […] IPTG. Following the culture harvest, cells were removed by filtration through a […] filter. The culture filtrate containing the secreted enzyme was then collected and used for further applications.
(§1) SCN eggs were obtained from SCN HG type 1.2.5.7, race 2. Eggs were rinsed 4 times with sterile water. Eggs were transferred to a 6-well plate and resuspended in 5 mL of 3 mM ZnSO4. The plate was sealed with parafilm, covered with aluminum foil to prevent light from entering the plate, and placed in a plate growth chamber at 25° C. and 80% relative humidity. After 6-7 days of incubation, an estimate of hatched SCN juveniles was obtained from the well to determine the overall number of juveniles per 10 μL. The concentration of the hatchery solution was adjusted until it consisted of 20-30 juveniles per 10 μL.
Potato dextrose agar media containing chloramphenicol and chlortetracycline was prepared and added to sterile twenty-four-well cell culture plates (1 mL per well). The plates were divided according to the pre-determined N-value for each treatment (N=12-24). Each treatment being tested was added to the agar surface within each well at a rate of 40 μL per well. Without allowing the treatments to dry, 10 μL of the prepared nematode mixture was added to the agar surface within each well.
To quantify the treatments' effects on nematode viability, the nematodes were examined under a dissecting microscope at 20× magnification. Initial (T0) values for the number of live juveniles, number of dead juveniles and total number of juveniles were recorded immediately after preparation of each well. The plates were then wrapped in parafilm around the open edge, encased in aluminum foil, and placed in secondary containment. The secondary containment was placed in a plant growth chamber at 25° C. and 80% relative humidity. At approximately 24 hours post addition of juveniles, the plates were evaluated, and the number of live juveniles, dead juveniles and total number of juveniles were recorded (T24).
The difference in percent death at T0 vs T24 was calculated by subtracting the percent dead at TO [(#dead juveniles/total #juveniles)×100] from the percent dead at T24 [(#dead juveniles/#total juveniles originally present)×100]. […] If the ANOVA indicated a significant difference existed among treatments, Tukey's HSD post hoc test was used to perform a pairwise contrast between each set of treatments. Different letters denote statistically significant results at P<0.05.
as §1, with “from” for “from SCN”, “rinsed four” for “rinsed 4”, “and 80-90%” for “and 80%”, “from each” for “from the”
Potato dextrose agar media containing chloramphenicol and chlortetracycline was prepared and added to sterile twenty-four-well cell culture plates (1 mL per well). […]

The subject of test [2] is soybean cyst nematode (SCN). Put plainly: Soil application around soybean plants: SCN cysts per gram of root tissue. The test is classed as in vivo, Heterodera glycines. The settings on record: Table 34; for Average cysts per g of root tissue: 0.5 mL/plant to soil, soybean 2830E3, 3 weeks, water control 139.8; for % Comparison to Control: water control = 100%, change in brackets. As for the experimental part:
To determine the efficacy of nematicidal enzymes applied to soil, a controlled environment trial was performed with 7-day old soybean plants (variety 2830E3) grown in pots. Enzymes were produced as described in Example 2. Prior to inoculation, 0.5 mL of neutral protease (SEQ ID NO: 127), esterase B (SEQ ID NO: 89), or chitinase 19F (SEQ ID NO: 182) free enzyme solution was applied to the soil around the base of each plant, or 0.5 mL of water was applied for the control (30 plants per treatment). Then, hatched SCN juveniles were applied to the soil around each plant as described in Example 2, and three weeks later, cysts per gram of root tissue was determined as described in Example 2. The data was analyzed as in Example 2 and appears in Tables 33 and 34.
To determine the efficacy of recombinant strains applied to soil, a controlled environment trial was performed as described in Example 18 above (Reduction of soybean cyst nematode reproduction by enzymes applied to soil), with the exception that a recombinant strain expressing neutral protease (SEQ ID NO: 127) was applied instead of a free enzyme solution. The recombinant strain was produced as in Example 3, and the treatment applied to soil as a whole cell broth.

Test [3] relates to Fall armyworm (Spodoptera frugiperda). Description: Diet-surface overlay (DSO) bioassay. The test is classed as in vivo. The settings on record: for Larva Stage I / Larva Stage II / Larva Stage III / Larva Stage IV / Dead Larva: number of individuals. The gist of the method: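 Enzyme treatments (0.1 mL) were spread and dried on artificial diet (no antibiotics), then one first-instar larva was placed per cell, 16 or 32 larvae per treatment. Trays were held at 27° C., 16:8 h light-dark, and developmental categories were counted after 7 days. Controls were filtered water and Btk spores at 1000 ppm.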

For test [4], the system named is soybean cyst nematode (SCN, Heterodera glycines). Put plainly: Controlled environment soybean seed treatment trial: SCN cysts on roots. The test is classed as in vivo. The note with it: for % Comparison to Control: base control = 100%.
Setting [5] is: Table 11, free enzyme seed treatment 2 fl oz/unit, soybean P18A98X, ILEVO 0.15 mg AI/seed, 3 weeks after inoculation, base control 71.4.

B1: Streptomyces coelicolor Chitinase F (Chi19F) (protein)
chain: ASCSSYHAWSADANYNTGDIVRYTDGKAYIAEHANPGYDPLISTWYWDPYACDGGSQTPVGNFVVSEAQFNQMFPGRNSFYTYSGLTAALSAYPGFANTGSDTTKKQEAAAFLANVSHETGGLVYIVEQNTANYPHYCDWNQPYGCPAGQAAYYGRGPIQLSWNFNYKAAGDALGIDLLGNPWLVQNDAAVAWKTGLWYWNTQSGPGTMTPHNAMVNGAGFGQTIRSINGSLECDGKNPAQVQSRVTKYQQFAQILGVSPGGNLYC
modifications: Chitinase F (Chi19F); Streptomyces coelicolor
For B1, the “Difference in Percent Death of Nematodes for 0 to 24 Hours” value in test [1] (Table 32, water only 4%) is reported as 24%. For the same molecule, the “difference in percent death during 24 hours” value in test [1] (text to Table 32) is 24%. Also, in test [2], the “Average cysts per g of root tissue” value is 95.6 cysts per g of root tissue and the “% Comparison to Control” value is given as 68% (−32%). Moreover, in test [3] (Table 48, chitinases, n = 32), the “Larva Stage I” value came out at 4, the “Larva Stage II” value is 14, the “Larva Stage III” value is 5 and the “Larva Stage IV” value worked out at 6. The “Dead Larva” value in test [3] (Table 48, chitinases, n = 32, dose per treatment in mU/mL Diet) is given as 3. Also, the “% Comparison to Control” value in test [4] (Table 11) was 68%. The “Average cysts per g of root tissue” value in test [4] (setting [5]) was 48.8 cysts per g of root tissue. The “% Comparison to Control” value in test [4] (Table 12) is reported as 79%. Besides, the “Average cysts per g of root tissue” value in test [4] (Table 12, seed treatment 2 fl oz/unit, ILEVO 0.15 mg AI/seed, base control 376.9) is 296.9 cysts per g of root tissue.

B2: Bacillus subtilis Esterase (EstB without signal sequence) (protein, listed as Bacillus subtilis)
chain: ESVHNPVVLVHGISGASYNFFAIKNYLISQGWQSNKLYAIDFYDKTGNNLNNGPQLASYVDRVLKETGAKKVDIVAHSMGGANTLYYIKYLGGGNKIQNVVTLGGANGLVSSTALPGTDPNQKILYTSIYSLNDQIVINSLSRLQGARNIQLYGIGHIGLLSNSQVNGYIKEGLNGGGLNTN
modifications: Esterase (EstB H191 without signal sequence)
In the case of B2, the “Difference in Percent Death of Nematodes for 0 to 24 Hours” value in test [1] (Table 28, fertilizer 3% v/v) is 3%. The “difference in percent death over twenty-four hours, single treatment relative to the combination Esterase B + 10-34-0 fertilizer” value in test [1] (text to Table 28) is recorded as −7%. For the same molecule, the “Average cysts per g of root tissue” value in test [2] is 117.3 cysts per g of root tissue; in test [4] (setting [5]) it was 19.6 cysts per g of root tissue; in test [4] (Table 15, seed treated with whole cell broth, base control 59.8) it was 56.3 cysts per g of root tissue; in test [4] (Table 25, soybean 3230E3, dried (PVP) formulation 0.04 units/seed, liquid 2 fl oz/unit, base control 289.9), 233.2 cysts per g of root tissue. Besides, the “% Comparison to Control” value in test [2] is 84% (−16%); in test [4] (Table 11), 27%; in test [4] (Table 15, whole cell broth) it was 94%; in test [4] (Table 25) it was 80%. Also, in test [3] (Table 50, esterases, n=32), the “Larva Stage I” value was 3. In addition, in test [3] (Table 50, esterases, n=32), the “Larva Stage II” value is on record as 4. Besides, in test [3] (Table 50, esterases, n=32), the “Larva Stage III” value stood at 14. In addition, in test [3] (Table 50, esterases, n=32), the “Larva Stage IV” value is reported as 10. For the same molecule, the “Dead Larva” value in test [3] (Table 50, esterases, n=32, dose per treatment in U/mL Diet) was 1. Also, the “individuals with delayed development” value in test [3] (text to Table 50) came to 67%.
